For experiment [1], the target named is SIRPα variant (10), three domain construct with rat CD4d3+4 tag (human). The experiment in a line: SPR; as a1, CD47 at 22 uM passed over again after OX130 MAb had been passed over the immobilised SIRP proteins.
Experiment [2] shares this target. The experiment in a line: SPR; BIAcore 3000; SIRP proteins captured through their rat CD4d3+4 tag on the rat CD4 MAb OX68 immobilised on a CM5 chip (about 1000 RU); human CD47 at 22 uM passed over; RU of the control rat CD4 domains 3 and 4 subtracted.

SIRPα variant (10), three domain construct with rat CD4d3+4 tag (human), sequence (main, as listed by the source mutant): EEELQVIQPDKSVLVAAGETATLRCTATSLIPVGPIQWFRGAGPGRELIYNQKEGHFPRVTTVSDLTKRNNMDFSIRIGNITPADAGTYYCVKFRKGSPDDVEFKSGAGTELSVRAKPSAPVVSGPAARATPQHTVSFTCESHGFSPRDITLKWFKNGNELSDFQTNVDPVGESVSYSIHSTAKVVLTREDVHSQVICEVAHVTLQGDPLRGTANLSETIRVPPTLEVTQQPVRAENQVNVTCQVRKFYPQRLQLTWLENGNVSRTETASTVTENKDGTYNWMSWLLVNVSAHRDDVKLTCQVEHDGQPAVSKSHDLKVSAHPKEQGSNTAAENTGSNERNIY

“Human CD47 (from UniProt Q08722 19-141) (ligand)”: the response units (RU) after OX130 injection in experiment [1] came to 247 RU. The substance also showed a response units (RU) in experiment [2] of 280 RU.

The record behind these values is paper PMC4770912.
